The values that follow are results of earlier work, collected in article PMC5750235.

In this data set the target is IgE (Homo sapiens) (UniProt P01854).
IgE (Homo sapiens), sequence (P01854 whole entry): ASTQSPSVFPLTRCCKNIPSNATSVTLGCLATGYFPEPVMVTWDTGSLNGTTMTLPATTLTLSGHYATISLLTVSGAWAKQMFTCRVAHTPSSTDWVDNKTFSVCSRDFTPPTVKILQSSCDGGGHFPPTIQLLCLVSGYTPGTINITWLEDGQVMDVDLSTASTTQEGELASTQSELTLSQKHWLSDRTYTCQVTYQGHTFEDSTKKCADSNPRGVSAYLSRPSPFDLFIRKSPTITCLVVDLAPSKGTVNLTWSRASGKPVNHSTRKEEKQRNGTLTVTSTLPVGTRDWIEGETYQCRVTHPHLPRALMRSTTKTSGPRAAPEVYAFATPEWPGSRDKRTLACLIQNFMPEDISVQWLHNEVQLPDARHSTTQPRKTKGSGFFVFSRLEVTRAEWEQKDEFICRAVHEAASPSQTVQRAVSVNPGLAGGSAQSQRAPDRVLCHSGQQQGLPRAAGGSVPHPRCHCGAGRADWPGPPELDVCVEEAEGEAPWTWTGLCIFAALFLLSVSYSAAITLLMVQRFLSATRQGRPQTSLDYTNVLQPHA

CD23, sequence (P06734 48-321): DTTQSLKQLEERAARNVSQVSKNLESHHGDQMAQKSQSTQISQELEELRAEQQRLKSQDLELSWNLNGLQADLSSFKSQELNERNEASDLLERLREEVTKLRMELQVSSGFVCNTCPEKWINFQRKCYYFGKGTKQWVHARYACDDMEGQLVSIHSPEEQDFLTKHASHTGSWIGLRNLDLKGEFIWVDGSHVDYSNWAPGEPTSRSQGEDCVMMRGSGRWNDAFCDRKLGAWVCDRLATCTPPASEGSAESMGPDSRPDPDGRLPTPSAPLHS

As for CD23 (from UniProt P06734), the Kd (commonly the equilibrium constant for the complex coming apart) is 2000 nM.
